Experimental data reported in the DeepSol protein solubility set.

Assay: soluble on expression in E. coli; label from the status in PepcDB or PDB records

Sequence | soluble on expression in E. coli
MTIYMFNNVNLQRQYMIDTIIFDFDGVILNSEPMHFEAIVQVLNQSGINLAYEEYMTHYLGLSDISLFPKILNDKGLAFSSTEIHQVIERKVRVYNELIENSEQLPMTPDLDWFLVRVARQYGKIGICSGSNRHSIIKILEKIHCGRLACYFKTIVSCEDVSLGKPSPEGYLLAAHRLQSKPENCLVIEDSEHGVAAAKAGGMLVAGLLTTLSRDLLANADMIVHDFKELDHLLNSH | not soluble
MGDSILSQAEIDALLNGDSDTKDEPTPGIASDSDIRPYDPNTQRRVVRERLQALEIINERFARQFRMGLFNLLRRSPDITVGAIRIQPYHEFARNLPVPTNLNLIHLKPLRGTGLVVFSPSLVFIAVDNLFGGDGRFPTKVEGREFTHTEQRVINRMLKLALEGYSDAWKAINPLEVEYVRSEMQVKFTNITTSPNDIVVNTPFHVEIGNLTGEFNICLPFSMIEPLRELLVNPPLENSRHEDQNWRDNLVRQVQHSELELVANFADIPLRLSQILKLKPGDVLPIEKPDRIIAHVDGVPVLTSQYGTVNGQYALRVEHLINPILNSLNEEQPK | not soluble
MGSDKIHHHHHHMREIDVHPAFTDLNGSGPDPDLSPLPVVARVGSYSMGWRVEAHAHQRGQLMFVTNGSMRVETRDGSWITPPGRACWIPSAAVHSAIYTQASKMQTVLIAPELLETLPKRCCVIKLTPLLRELVSQAVAINNQYTLHSREHRLMQVLVDQISTAQQAPLFLPEGRDPRLRRVTESLHQNPGDDRSIEAWAQIAGASARTLARLFQKETGMTYSSWRQQLCLIRAVEMLTEGASVTNIALALGYESTAGFTSMFTRSMGESPSNYLTRWSQETTASE | not soluble
MREILNHFDRPLNKKNSFQKIQNLSCQTHTKRFYREVKISCEEGGFSVLLDGCPVKTPAKRHFCLPTEVFAAFVAEEFENQKQVIDPAKMPMTRLVNTVIDGIADNMQAVFEDLLRFVACDMIFYRAQTPKELVQRQCEQWDPLLDWAEEKLGARFHVTEGLMHIEQSRESIQAVSNYLRKVESPYMLAALHTITTLTGSALIALAFSEGKIDSEHAWKIAHLDENWMMEQWGIDEETLARSSHKKSEFDAAGTIITTCLLEHHHHHH | not soluble
MQWRRCKVITRDFLMNADCKTAFGAIEESLLWSAEQRAASLAATLACRPDEGPVWIFGYGSLMWNPALEFTESCTGTLVGWHRAFCLRLTAGRGTAHQPGRMLALKEGGRTTGVAYRLPEETLEQELTLLWKREMITGCYLPTWCQLDLDDGRTVNAIVFIMDPRHPEYESDTRAQVIAPLIAAASGPLGTNAQYLFSLEQELIKLGMQDDGLNDLLVSVKKLLAENYPDGVLRPGFALEHHHHHH | not soluble
SLPTGGAPGRRWVGCRDMEHEVFVPVPAERLRDVLADPVRVARAVPGLQQDAGAEPVAGRLKVRIGSHSITYRGSLRLSARGDGTYAVEGDATESRGTGAVALALTLRADDAEGGATLTFTGTATADGRVAELPPDSVASAANRLLARFAENLGTAAQAPPAPEPEPSPQPEPRPASVFDTEVPPSSLADSGGGSDSDSDGDADEDTDAGADADADAQADEKAEAEGDADRGGRTDDEPAVSPPAEAAHARRTMIGRSAEEVDHAPPRGRYAPVPAPQPSAVGAPLRW | soluble
MKTIHVSVVTPDGPVYEDDVEMVSVKAKSGELGILPGHIPLVAPLEISAARLKKGGKTQYIAVSGGFLEVRPDKVTILAQAAERAEDIDVLRAKAAKERAERRLQSQQDDIDFKRAELALKRAMNRLSVAEMK | soluble
MSLDPHAPLAERLRPRTLDDVVGQSHLLGPGKPLRLAFDSGKLHSMILWGPPGVGKTTLARLTAQAFGADFIAISAVLSGVKDIREAVERARMNQKLGRATILFVDEVHRFNKSQQDAFLPHVESGLFTFIGATTENPSFEVVGALLSRAQVYVLKSLTPDELGRLMQRALQELPSLKLADGVDKLLAAYADGDARKLLNLLEQLDTAARTAQVEEADAAFVENALAQSLRRFDKGGEAFYDQISALHKSVRGSDPDASLYWLVRMLDGGADPRYLGRRLVRMASEDIGMADPRALRLALDAVETYERLGSPEGELALAEACLYLACAPKSNAAYVAYNAARAFVEANPSNDVPIHLRNAPTKLMKELGYGRAYRYAHDEPEAYAAGERYFPDDIAEQQFYEPTPRGLEGKIAEKLAHLRELDDEAEKEGHHHHHH | soluble
MSLEISKQTSDLLLSLEKKKGTLPKFSVLRSIPRNRIIYGAPGTGKSNYLEREVGKIFGDNPYVFTRVTFFPGYTYGQFIGAYKPVPIYKKLSGEEEIFSSNFRDKMENFEPMIDYQFVPGPFIDVLIKALKNRYTNFILIIEEINRANAASVFGDIFQLLDRNKNGESDYPVTFGPDIMNYLARNGIKDEMIKLPSNFFIWATMNNADQGVLPLDTAFKRRWSFEYLELEKYRKAVDSWKLSLRYKGHNKVIMWNDFRDIINKRLKGKVPEDKLLGPFFLKESELWNQNVFKNKLLYYLKEDVFKHNPTIDFLNASTFSELIEKYDGSDNIFTFDIDDSSFVSDEGGSHHHHHH | soluble
MGSDKIHHHHHHMSAKKNEIRSKLALLQLATELGSISKACGIMGYSRDSYYRFKKQYETAGERGLKNLSRRKPALKNRVSQAVEDQVIEIALDYPNYGQAKVAELLTARGCAISASGVRTIWVRHNLETKKNRLLALHSKLKQDNNLAPSDQVRIEKLYQLDSNDPIFECLYPGDICVQDTFDLGVISPLGQLYQHTFVDGYSQFAIAVIMPERDSASAAEFLEQTVLPWYATAQGLNINTILTDRGSEFFGKKSQQFSDVLSAHNINHIQMRAYNGPVVNGLAARFQDLAYHEFYEPFLKENKAGSLLDLNQQLANWLYDYNHSHAISGRYTLGKTAAEVLKLTKHLSEASSQCS | not soluble
MSRYGRYGGETKVYVGNLGTGAGKGELERAFSYYGPLRTVWIARNPPGFAFVEFEDPRDAEDAVRGLDGKVICGSRVRVELSTGMPRRSRFDRPPARRPFDPNDRCYECGEKGHYAYDCHRYSRRRRSRSRSRSHSRSRGRRYSRSRSRSRGRRSRSASPRRSRSISLRRSRSASLRRSRSGSIKGSRYFQSPSRSRSRSRSISRPRSSRSKSRSPSPKRSRSPSGSPRRSASPERMD | not soluble
MSLKINGEVTFKNNQVNYDENAITNLKLSGSDAKKENIKEVYMDLTNVGGPNKVLMDLNLLKDNSLSQSIGINDNVVAGEKEIPVTIVDKNGENHKAKGILTVKSKVGVGPLDFGFDESRIYFTVTDRFFNGDKNNDDPHGNNYDKKNPYTYHGGDLKGLTDKISYLKELGINTIWITPIVENTDFNQMFSQGKTQYSCHGYWAKDFEKLDPHLGTMDDLKTLIDTAHDSGIKIMVDVVLNHAGYGMKNKDNSGANNSPTEEDIAKFKGMFRENPGNDFITQESAGLPDFKTEDPEVREKLIEWQTGWIERSKTEKGNTIDYFRVDTVKHVDNTTWKAFKNKLTEINPSFKTIGEYFGADINNDGGQLQNGQMDALLDFGYKGKARDFVNGNIEGTSAYLDDRASKISNTNLMGQFLSSHDEDGFLKTVGDDLGKQMLAASLQITDKGIPVIYYGEELGMSGWNGFEQGDQNRYDMDFERLNDPKYKKVHDHYEKLLNIRKEYSKIFSKGNRKTIAGNNEEGYSVVLRSYNGKEITPMNLSENNEEKNITNGQNLFVVLNTKNEDKDISFKTNFKEGEKVKDLYSGNEYSIGKDGKVTVKVPSKEEGGTAILALKNREGHHHHHH | soluble
MSLKAQRYASVLTLDNLTGRLVVVGDIHGCLAQLQGMLRAVSFKQGSDTLVAVGDLVNKGPDSFGVVRLLKRLGAHSVLGNHDVKLLKLVKKIREKGPLNERDTKSSLAPFALTVPVDVEVYLSQLPHIIRIPAHNVIMTHGGLHPQRPLDCQYIDEVTTLRNLIEKEQKAGGVTLVATPETKDGGVPWASLWRGPETVVFGHDSRRGLQEQYRPLAIGLDSGCVYGGRLSAAVFPGGHIVSVSGWRREAKEGHHHHHH | soluble
MGSSHHHHHHSSGLVPRGSHMASMTEQRTKYADSILTTKSPYEATETIRIRLSQVKLLNKDFYLLFKELANLKRNYAQQLRKIIAENEDITKILNAQMIESNVLTPQEMSAFRFNSLGELRNVWDTVIEELKSDLKSSTEYYNTLDQQVVRELKESVENNTSWRESKDLHSKLSKNAASIEHYSKNNENSSHLEEARRQWDQQSPYLFELFETIDYNRLDTLKNCMLRFQTSFSDYLLNTTKECETVMTKFLAFEPQSEIDRFAKDASQYNFQLSSSSKEVVPNNAS | soluble
MRQRKDMPHNRLQTGGMTDEPTDIKAEAKPARTSDLRGFIRLLEERGQLRRIRQPVSLVHEITEIHRRVLADGGPALLFEQPVDHEGKVRKMPLLANLFGTRQRIEWGLGLETGGLPALGQKLTELREPRPPKSMAEAWSKLPLLRAALSMRQRNVSRAPVQEKVLTRDAVDLARLPVQWCWPGEPAPLITWPLVITRSPDDPDDINVGIYRMQVLGPDRVIMRWLAHRGGAHHHRLWQARGLDMPVTVAIGADPATILAAVMPLPDHISELGFSGLLRGAKSRIAKALTVPMPVPANAEIVLEGTVSATETAMEGPYGDHTGYYNSVEAFPVMTLSAITMRRDPIYLSTYTGRPPDEPSVLGEAMLEIFLPLVKRQFAEIVDLWMPPEACSYRVMVASIDKRYPGQAKRVMMGLWSMLPQFSYVKLIILVDPDIDVRSWTDVVWALSTRFDASRDTTIINDTPIDYLDFASPKAGLGGKMGLDATRKLPPETEREWGRVLSMTPDVVAKVDLVWRDLGLGERPVDKLAAALEHHHHHH | not soluble
MKWRTRVTELLGITYPIIQGGLAYLAYADLAAAVSNAGGLGQITAMSLDGPEQLREEIRKVKEKTDRPFGVNFAIGQHGRPFAHMLEAALDEGVPVVSVTGGNPAPFFEQLKGTNVKKLVLVAAVRQAVKAEELGADAVMVVGQEGGGHLGKYDTGTFVLIPKVVDSVSIPVIASGGIADGRGLMAALALGAEGIEMGTRFIATKECVHAHPAYKEMILNATENDTVIIKRSLGAPGRVLANAWAEKILEIERQGGTYDDLKEYISGEANRRFIYEGKVDEGFAWAGQAIGLIHDVPSVAELFARMIEEAEQIRRRWAN | not soluble
MSLKRVSVIICMFLYFVLTDKAHAQRCLPGTKGLRITAGMTDGFHTADKRNELGYHFGMGMDRYVNGCHKWVFSGEYLQKYYPYKDIRVPVSQFTAEGGYYYNFLSDANKVFLCYAGGSVLAGYETVNWGTGMLFDGSRLCVGDAFVYGGAVSLEIETYLANQVVLLFHARERCLWGNDSGHFHFQFGVGLKIILNEGHHHHHH | not soluble
SNAMQAIRSILVVIEPDQLEGLALKRAQLIAGVTQSHLHLLVCEKRRDHSAALNDLAQELREEGYSVSTNQAWKDSLHQTIIAEQQAEGCGLIIKQHFPDNPLKKAILTPDDWKLLRFAPCPVLMTKTARPWTGGKILAAVDVGNNDGEHRSLHAGIISHAYDIAGLAKATLHVISAHPSPMLSSADPTFQLSETIEARYREACRTFQAEYGFSDEQLHIEEGPADVLIPRTAQKLDAVVTVIGTVARTGLSGALIGNTAEVVLDTLESDVLVLKPDDIIAHLEELASKE | soluble
MGSDKIHHHHHHMAWHKLGRVYCADGFADWAQHSFMTPVPVQMSADVIRLYGGMRDDAGISRIGWVDLDAHNPLRVIAVCDAPALDLGEPGMFDDNGVILGDVIRTSEAELRMYYVGFQLVEKAKFLAFTGVAISDASGTRFDRVFPTPVLDRAPEALFINALHSIAQTETGFRAWISCGQRWQDINGRIYPQYNCWTVPSEDGLHFDMRDAVKIMDVNEAEYRIGRPRANRLADGSFELRVTSDTFDKHYSSHLAHSKDGIVFQRSDEVELPRGAPGDWDAEMTCYPARIDTPTGRSYLFYNGNNMGETGVGVAEWQAEA | not soluble
